Legend:
[1] = target: recombinant Arp2/3 complex with Arp2 T237A, T238A, and Y202A mutations (UniProt P61158 1-418; P61160 1-394; O15143 1-372; O15144 1-300; O15145 1-178; P59998 …, T237A | T238A | Y202A); experiment: pull-down; GST-NWASP VCA covalently coupled to Activated CH-sepharose 4B; beads added to Arp2/3 complex, room temperature, 30 min; beads spun at 700 x g, Coomassie-stained gels quantified and fitted; conditions: both partners purified
[2] = target: recombinant Arp2/3 complex with ARPC4 R105A and R106A mutations (UniProt P61158 1-418; P61160 1-394; O15143 1-372; O15144 1-300; O15145 1-178; P59998 …, R105A | R106A); experiment: as above; conditions: both partners purified

- Kd [1]: 500 nM
- Kd [2]: 60 nM
B1: GST-NWASP VCA (domain or fragment)
chain: PSDGDHQVPTTAGNKAALLDQIREGAQLKKVEQNSRPVSCSGRDALLDQIRQGIQLKSVADGQESTPPTPAPTSGIVGALMEVMQKRSKAIHSSDEDEDEDDEEDFEDDDEWED

— publication PMC3220268, “Phosphorylation of the Arp2 Subunit Relieves Auto-inhibitory Interactions for Arp2/3 Complex Activation” (PLoS Computational Biology, 2011)
